The results in this text go back to article PMC2845155.

This data set deals with CC(=O)N[C@H]1[C@@H]2OC[C@@H](O2)[C@@H](O)[C@@H]1O[C@H](C)C(=O)N[C@@H](C)C(=O)N[C@H](CCC(=O)N[C@@H](CCC[C@@H](N)C(=O)O)C(=O)O)C(=O)O. As to the kind of experiment: LC/MS of substrate consumption or product formation, nonlinear regression. It counts as biochemical, Citrobacter freundii. The note with it: pH 7.0, hydrolysis at lactyl amide bond.

Usually Km stands for the concentration of substrate that gives half-maximal velocity. One may read the kcat as the maximal rate divided by the concentration of active sites. In general, kcat/Km refers to the second-order rate constant that governs catalysis at low substrate concentration. Turning to AmpD (Citrobacter freundii), the Km is 360 ± 10 µM, the kcat came to 25 ± 2 s⁻¹ and the kcat/Km was 69000 ± 4000 M⁻¹ s⁻¹.
